These results are taken from paper PMC8899190 (2022).

Holding throughout (test): BLI
In general terms: In BLI a coated tip is dipped into the sample, and binding shifts an interference pattern.

Assay [1] addresses T1, Avi-tagged, biotinylated h14-3-3ß WT (human, UniProt P31946 1-239, biotin on the N-terminal Avi tag).
T1 chain: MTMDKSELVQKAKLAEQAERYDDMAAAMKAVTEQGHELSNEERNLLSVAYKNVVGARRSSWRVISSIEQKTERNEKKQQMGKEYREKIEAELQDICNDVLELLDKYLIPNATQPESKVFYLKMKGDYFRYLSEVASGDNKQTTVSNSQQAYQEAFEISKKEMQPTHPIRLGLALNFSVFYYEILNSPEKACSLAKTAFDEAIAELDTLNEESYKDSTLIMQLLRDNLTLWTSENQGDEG

The target of assay [2] is T2, Avi-tagged, biotinylated h14-3-3ß_(nY213) (human, UniProt P31946 1-246, 3-nitrotyrosine at 213; biotin on the N-terminal Avi tag).
T2 chain: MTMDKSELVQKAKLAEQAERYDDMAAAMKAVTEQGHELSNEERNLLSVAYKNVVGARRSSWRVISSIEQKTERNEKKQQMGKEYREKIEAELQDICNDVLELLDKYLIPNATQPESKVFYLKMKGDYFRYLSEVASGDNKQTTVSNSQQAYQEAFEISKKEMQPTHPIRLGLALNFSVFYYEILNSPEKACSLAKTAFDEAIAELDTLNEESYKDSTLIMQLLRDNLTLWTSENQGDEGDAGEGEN

For assay [3], the target named is T3, Avi-tagged, biotinylated h14-3-3ß_(nY130) (human, UniProt P31946 1-246, 3-nitrotyrosine at 130; biotin on the N-terminal Avi tag).
T3 chain: T2 chain

B1: Nb-G5 (C115S) (VHH)
VHH: QVQLQESGGGLVQPGGSLRLSCAASKNIANFDSMAWYRRSPGKERDLVARLYSDGGTNYEDSVKGRFNISTDIEKNTVYLQMNNLKLEDTARYYCRADLGLFDTSEFPGQGTQVTVSS
By Kd is commonly meant the free concentration of one partner at which half of the binding sites on the other are occupied at equilibrium, for simple one-to-one binding. As for B1, the Kd in assay [1] was found to be 91 nM; in assay [2], 104 nM; in assay [3], 100 nM.
